One experiment has as its target human c-Ret (human, UniProt P07949 29-1114, phosphorylation at Y1016 is the readout). The experiment in a line: cell-based or functional assay.
The target of experiment [1] is T1, Recombinant Human GFRα-1/GDNF Rα-1 Fc Chimera (human, UniProt P56159 25-429).
T1 construct: Purchased Fc chimera; It was captured on protein A in Biacore and coated on the plate in ELISA; also called GFRα1-Fc; recombinant human GFRα1-Fc chimera, carrier-free; not shown: Fc part of a purchased Fc chimera
T1 sequence (looked up): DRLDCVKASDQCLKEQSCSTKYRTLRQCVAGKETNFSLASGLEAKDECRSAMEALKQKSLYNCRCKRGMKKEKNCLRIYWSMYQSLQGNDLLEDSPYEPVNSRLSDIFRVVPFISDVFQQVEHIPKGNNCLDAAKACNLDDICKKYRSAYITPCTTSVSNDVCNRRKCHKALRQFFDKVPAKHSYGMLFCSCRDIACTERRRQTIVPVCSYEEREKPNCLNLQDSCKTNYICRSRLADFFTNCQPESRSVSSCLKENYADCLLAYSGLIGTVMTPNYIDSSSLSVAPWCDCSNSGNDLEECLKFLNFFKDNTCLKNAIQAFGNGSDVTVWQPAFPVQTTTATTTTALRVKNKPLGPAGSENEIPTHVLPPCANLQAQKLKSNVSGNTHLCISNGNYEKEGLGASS
The experiment in a line: ELISA, plate-bound human GFRα1-Fc; 4 C sample. The protocol:
GDNF wild type and variants are tested in an ELISA assay, in which binding of the GDNF proteins to the plate-bound receptor (GFRα1) is measured. A “no GDNF” condition and/or an “irrelevant protein” condition are used as negative controls.
Each well of a 96-well plate (Greiner 655081 Immunobind ELISA plates) is coated with 70 μl of human GFRα1 (recombinant human GFRα1-Fc chimera, carrier-free) at 1 μg/ml in carbonate buffer, pH 9.6. If an irrelevant receptor is coated, it is an irrelevant Fc chimera and is coated at the same concentration as GFRα1. The plates are sealed and incubated at 4° C. overnight. The wells are aspirated and washed twice with washing buffer (20 mM Tris (hydroxymethyl) aminomethane, pH 7.4, 0.15 M NaCl, 0.1% Tween-20), using an automatic plate washer. The plates are blocked with 200 μl blocking buffer per well (3% Carnation Instant milk in the above washing buffer) for at least 1 hour at room temperature. Plates are washed twice with washing buffer.
GDNF proteins are serially diluted into blocking buffer at an appropriate concentration range, typically beginning at 5 μg/ml and serially diluting 1:10. A no GDNF control is used, which consists of blocking buffer alone. 50 μl of each GDNF solution is added to the GFRα1 coated wells in triplicate. The plates are incubated for 1.5 hours at room temperature. The wells are then washed 3 times with washing buffer.

Experiment [2] deals with T1, Recombinant Human GFRα-1/GDNF Rα-1 Fc …. The experiment in a line: Biacore (SPR), GFRα-1; 4 C sample of the 4-week stability comparison. (In SPR one partner is held on a chip, and binding of the other changes the refractive index at the surface.)
Experiment [3] has the same target. The experiment in a line: SPR (Biacore 2000), GFRα1-Fc captured on protein A, GDNFv as analyte, 1:1 Langmuir, 25 C. The protocol: (§1) A Biacore® 2000 instrument is used to measure the binding kinetics of GDNFv to human and rat GDNF family receptors (GFRα1 and GFRα2). Measurements are performed at 25° C. Samples are dissolved in HBS-EP buffer (150 mM sodium chloride, 3 mM EDTA, 0.005% (w/v) surfactant P-20, pH 7.4). Protein A, Staphylococcus aureus is immobilized on flow cells 1 to 4 of a CM4 sensor chip (GE Healthcare #BR-1005-39) at a level of ˜200 response units (RUs) using amine coupling chemistry to capture GFR Fc chimera (Recombinant Human GFRα-1/GDNF Rα-1 Fc Chimera; Recombinant Human GFRα-2/GDNF Rα-2 Fc Chimera; Recombinant Rat GFRα-1/GDNF Rα-1 Fc Chimera; Recombinant Mouse GFRα-2/GDNF Rα-2 Fc Chimera).
(§2) Binding is evaluated using multiple cycles. Each cycle consists of the following steps: 1) injection of about 10 μL of GFR at a concentration of ˜1.0 μg/mL and a flow rate of 10 μL/min., aiming at a capture of 120-150 RUs; 2) injection of 250 μL of GDNFv at a flow rate of 50 μL/min., in a final concentration rage between 10 nM and 0.04 nM followed by […]. for dissociation; and 3) regeneration using about 30 μL of 10 mM glycine hydrochloride, pH 1.5. Association and dissociation rates for each cycle are evaluated using a “1:1 (Langmuir) binding” model in the BIAevaluation software, version 4.1.

Experiment [4] deals with T2, Recombinant Human GFRα-2/GDNF Rα-2 Fc Chimera (human, UniProt O00451 22-441).
T2 construct: Purchased Fc chimera; not shown: Fc part of a purchased Fc chimera
T2 sequence (looked up): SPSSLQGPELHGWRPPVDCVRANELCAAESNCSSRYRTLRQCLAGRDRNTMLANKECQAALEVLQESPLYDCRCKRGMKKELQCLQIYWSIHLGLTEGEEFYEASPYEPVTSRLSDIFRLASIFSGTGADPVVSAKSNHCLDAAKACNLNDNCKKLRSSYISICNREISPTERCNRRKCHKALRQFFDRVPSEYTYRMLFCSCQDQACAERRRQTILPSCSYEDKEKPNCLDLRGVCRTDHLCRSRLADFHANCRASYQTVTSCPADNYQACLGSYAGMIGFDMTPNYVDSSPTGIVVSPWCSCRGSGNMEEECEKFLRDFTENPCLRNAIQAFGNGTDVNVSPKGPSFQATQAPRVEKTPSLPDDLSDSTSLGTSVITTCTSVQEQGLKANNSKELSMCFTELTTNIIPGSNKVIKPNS
The experiment in a line: SPR (Biacore 2000), human GFRα2-Fc captured on protein A, GDNFv as analyte, 1:1 Langmuir, 25 C. The protocol:
as §1, §2

Chain of human c-Ret (P07949 29-1114): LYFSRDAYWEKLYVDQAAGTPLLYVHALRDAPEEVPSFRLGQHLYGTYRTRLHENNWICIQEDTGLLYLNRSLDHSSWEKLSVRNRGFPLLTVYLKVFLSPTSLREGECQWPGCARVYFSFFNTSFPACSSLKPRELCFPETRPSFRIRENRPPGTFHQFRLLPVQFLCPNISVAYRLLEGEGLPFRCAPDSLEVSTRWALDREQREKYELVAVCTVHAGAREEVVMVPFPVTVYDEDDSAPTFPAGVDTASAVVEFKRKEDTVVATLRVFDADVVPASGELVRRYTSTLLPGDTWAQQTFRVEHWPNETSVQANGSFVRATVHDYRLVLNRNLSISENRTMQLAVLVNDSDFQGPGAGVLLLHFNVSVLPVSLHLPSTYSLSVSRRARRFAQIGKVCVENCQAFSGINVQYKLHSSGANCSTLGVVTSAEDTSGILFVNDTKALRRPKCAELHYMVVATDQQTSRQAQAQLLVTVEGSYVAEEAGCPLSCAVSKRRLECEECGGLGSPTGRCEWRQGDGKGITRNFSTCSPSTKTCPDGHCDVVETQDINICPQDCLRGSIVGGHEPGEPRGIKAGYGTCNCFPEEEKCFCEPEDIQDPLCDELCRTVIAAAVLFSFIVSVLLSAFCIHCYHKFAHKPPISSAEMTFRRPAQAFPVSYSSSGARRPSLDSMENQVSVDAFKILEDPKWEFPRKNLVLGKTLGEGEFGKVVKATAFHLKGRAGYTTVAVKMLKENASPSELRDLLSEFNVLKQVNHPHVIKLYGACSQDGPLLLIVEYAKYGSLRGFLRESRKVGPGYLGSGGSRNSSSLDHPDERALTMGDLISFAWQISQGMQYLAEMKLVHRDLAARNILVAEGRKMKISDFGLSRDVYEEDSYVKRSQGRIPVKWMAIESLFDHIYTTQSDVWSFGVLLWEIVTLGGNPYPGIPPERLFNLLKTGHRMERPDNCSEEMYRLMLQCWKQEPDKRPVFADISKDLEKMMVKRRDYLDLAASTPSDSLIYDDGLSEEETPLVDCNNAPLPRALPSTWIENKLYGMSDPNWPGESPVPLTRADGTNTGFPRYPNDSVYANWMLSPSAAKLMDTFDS

B1: CHO-Δ31-GDNF (SEQ ID NO: 8) (ligand)
chain: RGQRGKNRGCVLTAIHLNVTDLGLGYETKEELIFRYCSGSCDAAETTYDKILKNLSRNRRLVSDKVGQACCRPIAFDDDLSFLDDNLVYHILRKHSAKRCGCI
modifications: N-glycosylated at N49 (numbering of mature GDNF)
notes: Expressed in CHO cells; also called CHO-Δ31-GDNFv; WT CHO Δ31-GDNFv
One may read the EC50 as the concentration giving half of the maximal effect. By Kd is commonly meant the constant that tells how readily two partners part at equilibrium. The term koff denotes the rate constant with which the complex falls apart. For orientation: kon means the rate constant with which the complex forms. For the molecule B1, the “c-Ret phosphorylation at Y1016, EC50” value with human c-Ret is 0.008 to 0.015 µg/mL. In addition, the EC50 in experiment [1] is 600 pM. In addition, the Kd in experiment [2] came out at 29 pM; in experiment [3] it was 29 pM; in experiment [4], 47 pM. The koff in experiment [3] was found to be 9e-05 s⁻¹; in experiment [4] it was 0.00025 s⁻¹. Further, the kon in experiment [3] was 3.8e+06 M⁻¹ s⁻¹; in experiment [4], 5.3e+06 M⁻¹ s⁻¹.

B2: CHO-Δ31-N38Q-D95E-GDNF (SEQ ID NO: 9) (ligand)
chain: RGQRGKQRGCVLTAIHLNVTDLGLGYETKEELIFRYCSGSCDAAETTYDKILKNLSRNRRLVSEKVGQACCRPIAFDDDLSFLDDNLVYHILRKHSAKRCGCI
modifications: N-glycosylated at N49 (numbering of mature GDNF)
notes: Expressed in CHO cells; also called CHO-Δ31-N38Q-D95E-GDNFv; GDNF variant 2
For B2, in the experiment with human c-Ret, the “c-Ret phosphorylation at Y1016, EC50” value was in the range of 0.008 to 0.015 µg/mL. Also, the EC50 in experiment [1] came out at 800 pM. Further, the Kd in experiment [2] amounted to 30 pM. In addition, in experiment [3], the Kd was determined as 30 pM, the koff was 0.00011 s⁻¹ and the on-rate constant (kon) came out at 4.5e+06 M⁻¹ s⁻¹. Besides, in experiment [4], the Kd came to 47 pM, the koff worked out at 0.00035 s⁻¹ and the kon is 7.6e+06 M⁻¹ s⁻¹.

The values are drawn from patent publication US20130324474A1 (Eli Lilly, published 2013).
